Our source for the fold change of neutralization against B.1.351 pseudovirus relative to WA1/2020 values is US20240409618A1.

The experiment has as its target SARS-CoV-2 B.1.351 (Beta) spike on pseudotyped virus (SARS-CoV-2 B.1.351) (UniProt P0DTC2). Put plainly: cell-based or functional assay.

Where only a bound is given, the exact number is not on record here.

Substance DMAb REGN10987 (FcWT) (antibody) gave a fold change of neutralization against B.1.351 pseudovirus relative to WA1/2020 of less than 3 fold.
